This note sets out measurements from US20210087265A1 (PROGASTRINE ET CANCERS S R L, published 2021).

First the molecules themselves.
T1: human progastrin (human, UniProt P01350 22-101)
T1 construct: 80-residue progastrin, i.e. preprogastrin (AAB19304.1) without its 21-residue signal peptide; also called hPG; PG
T1 sequence: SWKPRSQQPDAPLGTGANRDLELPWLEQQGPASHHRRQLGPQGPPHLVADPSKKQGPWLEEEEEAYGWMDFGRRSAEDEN

B1: mAb16 (antibody, V domains shown)
VH: QVQLQQSGAELVKPGASVKLSCKASGYTFTSYYMYWVKQRPGQGLEWIGEINPSNGGTNFNEKFKSKATLTVDKSSSTAYMQLSSLTSEDSAVYYCTRGGYYPFDYWGQGTTLTVSS
VL: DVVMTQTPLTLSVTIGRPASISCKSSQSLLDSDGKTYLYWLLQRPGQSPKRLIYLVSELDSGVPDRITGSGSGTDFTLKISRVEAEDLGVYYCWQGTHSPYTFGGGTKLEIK
notes: Murine monoclonal antibody from a hybridoma; also called hybridoma 1E9D9B6
B2: mAb19 (antibody, V domains shown)
VH: DVQLQESGPGLVKPSQSLSLTCTVTGYSITSDYAWNWIRQFPGNKLEWMGYISFSGYTSYNPSLKSRISVTRDTSRNQFFLQLTSVTTEDTATYYCAREVNYGDSYHFDYWGQGTIVTVSS
VL: QLALTQSSSASFSLGASAKLTCTLSSQHRTYTIEWYQQQSLKPPKYVMEVKKDGSHSTGHGIPDRFSGSSSGADRYLSISNIQPEDEAIYICGVGDAIKGQSVFVFGGGTKVTVL
notes: Murine monoclonal antibody from a hybridoma; also called hybridoma 1B3B4F11
B3: mAb3 (antibody, V domains shown)
VH: EVQLQQSGTVLARPGASVKMSCKASGYIFTSYWVHWVKQRPGQGLEWIGGFYPGNSDSRYNQKFKGKATLTAVTSASTAYMDLSSLTNEDSAVYFCTRRDSPQYWGQGTTLTVSS
VL: DVLMTQTPLSLPVSLGDQASISCRSSQSIVHSNGNTYLEWYLQKPGQSPKLLIYKVSNRFSGVPDRFSGSGSGTDFTLKISRLEAEDLGVYYCFQGSHVPFTFGGGTKLEIK
notes: Murine monoclonal antibody from a hybridoma; also called hybridoma 6B5B11C10
B4: mAb13 (antibody, V domains shown)
VH: EVQLVESGGGLVQPGGSLKLSCAASGFIFSSYGMSWVRQSPDRRLELVASINTFGDRTYYPDSVKGRFTISRDNAKNTLYLQMTSLKSEDTAIYYCARGTGTYWGQGTTLTVSS
VL: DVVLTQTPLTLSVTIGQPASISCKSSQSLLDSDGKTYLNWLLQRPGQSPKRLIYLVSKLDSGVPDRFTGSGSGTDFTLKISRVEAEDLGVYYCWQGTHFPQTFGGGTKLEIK
notes: Murine monoclonal antibody from a hybridoma; also called hybridoma 2C6C3C7
B5: mAb4 (antibody, V domains shown)
VH: QVQLQQSGAELMKPGASVKISCKATGYTFSSSWIEWLKQRPGHGLEWIGEFLPGSGSTDYNEKFKGKATFTADTSSDTAYMLLSSLTSEDSAVYYCATDGNYDWFAYWGQGTLVTVSA
VL: DLVMTQTPLSLPVSLGDQASISCRSSQSLVHSSGVTYLHWYLQKPGQSPKLLIYKVSNRFSGVPDRFSGSGSGTDFTLKISRVEAEDLGVYFCSQSTHVPPTFGSGTKLEIK
notes: Murine monoclonal antibody from a hybridoma; also called hybridoma 20D2C3G2

This assay deals with T1, human progastrin. As to the kind of experiment: epitope mapping (method not described).
For the molecule B1, the binding result is on record as “binds”.

B2: the binding result was “binds”.

As to B3, the binding result is listed as “binds”.

In the case of B4, the binding result is “binds”.

Take B5: the binding result is “binds”.
